What was measured:
[1] = target: T1, hPDL1 on HEK293 cells (human, UniProt Q9NZQ7 19-290); assay: flow cytometry on transfected HEK293 cells
T1 construct: whole, on cells
Experimental: (§1) HEK293 cells were transfected with expression vectors of the following immune-related proteins: hBTLA, hICOS, hCD28, hPDL1, hPD1, hPDL2, and hCTLA-4. Over-expression of the proteins was verified using commercial antibodies against each target. […] Antibody binding to cells was then detected using flow cytometry. Cells that were incubated only with the secondary antibody were used as a background control. […] Note that “+” indicates binding above the background level and “-” indicate no binding as compared to the background level.

[2] = target: T2, hPD1 on HEK293 cells (human, UniProt Q15116 25-288); assay: flow cytometry on transfected HEK293 cells
T2 construct: whole, on cells
Experimental: as §1

[3] = target: T3, hICOS on HEK293 cells (human, UniProt Q9Y6W8 21-199); assay: flow cytometry on transfected HEK293 cells
T3 construct: whole, on cells
T3 sequence (looked up): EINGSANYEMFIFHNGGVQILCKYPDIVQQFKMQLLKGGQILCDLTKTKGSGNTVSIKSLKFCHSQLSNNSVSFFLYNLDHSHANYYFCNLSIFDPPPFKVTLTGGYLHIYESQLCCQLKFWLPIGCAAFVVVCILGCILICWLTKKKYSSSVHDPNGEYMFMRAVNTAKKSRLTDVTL
Experimental: as §1

[4] = target: T4, hPDL2 on HEK293 cells (human, UniProt Q9BQ51 20-273); assay: flow cytometry on transfected HEK293 cells
T4 construct: whole, on cells
T4 sequence (looked up): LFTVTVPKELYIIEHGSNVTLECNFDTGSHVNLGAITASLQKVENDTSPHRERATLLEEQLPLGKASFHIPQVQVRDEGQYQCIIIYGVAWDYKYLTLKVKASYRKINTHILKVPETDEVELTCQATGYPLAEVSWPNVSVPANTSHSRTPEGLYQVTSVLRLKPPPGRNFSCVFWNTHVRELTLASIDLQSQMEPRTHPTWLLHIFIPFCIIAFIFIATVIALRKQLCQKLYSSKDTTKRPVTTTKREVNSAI
Experimental: as §1

[5] = target: T5, hCD28 on HEK293 cells (human, UniProt P10747 19-220); assay: flow cytometry on transfected HEK293 cells
T5 construct: whole, on cells
Experimental: as §1

[6] = target: T6, hBTLA on HEK293 cells (human, UniProt Q7Z6A9 31-289); assay: flow cytometry on transfected HEK293 cells
T6 construct: whole, on cells
Experimental: as §1

[7] = target: T7, Pig (Sus scrofa) CTLA-4 on HEK293 cells (Sus scrofa, UniProt Q9MYX7 36-223); assay: flow cytometry on HEK293 cells transiently expressing pig CTLA-4
T7 construct: whole, on cells; also called pig CTLA-4
Experimental: Macaque (Macaca fascicularis), pig (Sus scrofa) and mouse (Mus musculus) CTLA-4 proteins were transiently expressed on the surface of HEK293 cells. […] Binding was measured using FACS and analyzed.

T1 sequence (Q9NZQ7 19-290): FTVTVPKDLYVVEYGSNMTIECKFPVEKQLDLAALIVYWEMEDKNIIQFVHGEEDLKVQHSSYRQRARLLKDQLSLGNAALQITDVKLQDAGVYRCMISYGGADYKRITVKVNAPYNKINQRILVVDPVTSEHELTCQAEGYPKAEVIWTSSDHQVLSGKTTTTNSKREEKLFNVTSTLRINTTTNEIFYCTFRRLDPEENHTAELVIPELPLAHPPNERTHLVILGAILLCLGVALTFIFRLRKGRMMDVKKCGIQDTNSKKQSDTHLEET
T7 sequence (Q9MYX7 36-223): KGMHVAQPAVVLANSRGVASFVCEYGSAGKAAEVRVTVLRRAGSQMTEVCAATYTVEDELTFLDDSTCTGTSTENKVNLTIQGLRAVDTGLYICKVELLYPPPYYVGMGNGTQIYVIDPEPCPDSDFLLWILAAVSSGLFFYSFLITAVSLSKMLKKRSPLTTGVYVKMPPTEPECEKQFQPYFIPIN
T2 sequence (Q15116 25-288): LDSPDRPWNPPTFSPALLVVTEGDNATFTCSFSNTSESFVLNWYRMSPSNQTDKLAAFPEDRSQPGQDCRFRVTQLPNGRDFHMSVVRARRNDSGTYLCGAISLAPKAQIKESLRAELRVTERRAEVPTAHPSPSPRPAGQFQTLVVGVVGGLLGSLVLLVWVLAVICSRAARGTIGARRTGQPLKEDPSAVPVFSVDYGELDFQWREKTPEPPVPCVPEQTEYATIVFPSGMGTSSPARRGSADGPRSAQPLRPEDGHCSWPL

MFI [1]: 70 MFI
MFI [2]: 77 MFI
MFI [3]: 67 MFI
MFI [4]: 73 MFI
MFI [5]: 67 MFI
MFI [6]: 67 MFI
EC50 [7]: 671 nM
B1: Ipilimumab (antibody, V domains shown)
VH: QVQLVESGGGVVQPGRSLRLSCAASGFTFSSYTMHWVRQAPGKGLEWVTFISYDGNNKYYADSVKGRFTISRDNSKNTLYLQMNSLRAEDTAIYYCARTGWLGPFDYWGQGTLVTVSS
VL: not shown
